The experiment addresses p22(79-227) (T. brucei). Kind of experiment: SEC. (SEC sorts molecules by how far they enter the pores of the column.)

Consider p22(79-227) (domain or fragment), for which the stoichiometry N (usually a count of units in the complex or per binding partner) came out at 3.
